According to the Immune Epitope Database (IEDB):

Molecular target: HLA-A*02:01
Experiment: IEDB peptide-MHC binding, purified MHC/competitive/radioactivity; filed as Kd, often an IC50 or EC50 that approximates it; ≥ and ≤ were set here for values at or beyond the usual limits of such assays
[1] = source organism: Hepatitis B virus subtype ayw

Kd (source organism: Homo sapiens) [µM] | Sequence | Kd [1] [µM] | also measured
– | ILCWGELMTL | 0.026 | –
– | ELHPDKWTV | – | Kd (source organism: HIV-1 M:B_MN): ≥ 50 µM
3.33 | PLTSIISAV | – | –
– | CLTFGRETV | ≥ 50 | –
≥ 25 | DLFGIWSKV | – | –
– | GLRDLAVAV | – | Kd (source organism: Hepatitis C virus (isolate Taiwan)): 1.47 µM
– | FLCILLLCLI | – | Kd (source organism: Hepatitis B virus adw/Indonesia/PIDW420): 2.38 µM
– | NMGLKFRQL | ≥ 50 | –
– | RMRGTFSAPL | 0.046 | –
– | HLSLRGLPV | 12.5 | –
– | LLYQTFGRKL | ≥ 50 | –
≥ 50 | KLPGLLSRDL | – | –
0.102 | SLQLVFGIEL | – | –
≥ 50 | ALSRKVAELV | – | –
– | DLVVSYVNV | – | Kd (source organism: Hepatitis B virus): ≥ 50 µM
≥ 50 | DLESEFQAAL | – | –
≥ 50 | PLERFAELV | – | –
– | NMGLKFRQLL | ≥ 50 | –
– | RLCVQSTHV | – | Kd (source organism: Human papillomavirus 16): 16.7 µM
– | ELRHYSDSV | – | Kd (source organism: human papillomavirus 18): ≥ 50 µM
– | PLSYQHFRRL | ≥ 50 | –
– | HLEGKVILV | – | Kd (source organism: HIV-1 M:B_MN): 8.33 µM
